Source: article PMC6336354, “A transient helix in the disordered region of dynein light intermediate chain links the motor to structurally diverse adaptors for cargo transport” (PLoS Biology, 2019)

T1: SPDL1(2–359)::Strep-tag II (human, UniProt Q96EA4 2-359)
T1 construct: human Spindly (SPDL1), N-terminal region, residues 2-359; also called Spindly; source: E. coli BL21, purified (Ni-NTA, TEV cleavage, Strep-Tactin; dialysis or SEC); not shown: 6xHis::MBP, N-terminal, cleaved; Strep-tag II (after linker GSGSGR), C-terminal, kept
T1 sequence (looked up): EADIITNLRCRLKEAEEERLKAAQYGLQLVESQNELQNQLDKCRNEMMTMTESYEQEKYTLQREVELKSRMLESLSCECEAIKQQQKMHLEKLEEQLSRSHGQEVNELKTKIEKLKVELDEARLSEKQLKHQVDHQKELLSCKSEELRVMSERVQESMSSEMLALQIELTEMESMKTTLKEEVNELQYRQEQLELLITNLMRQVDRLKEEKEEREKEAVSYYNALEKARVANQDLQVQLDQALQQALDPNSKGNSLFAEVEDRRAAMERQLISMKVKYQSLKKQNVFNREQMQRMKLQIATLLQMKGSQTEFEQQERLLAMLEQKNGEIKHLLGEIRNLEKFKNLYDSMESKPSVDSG

T2: RAB11FIP3(2–756)::Strep-tag II (human, UniProt O75154 2-756)
T2 construct: source: E. coli BL21, purified (Ni-NTA, TEV cleavage, Strep-Tactin; dialysis or SEC); not shown: 6xHis::MBP, N-terminal, cleaved; Strep-tag II (after linker GSGSGR), C-terminal, kept
T2 sequence (looked up): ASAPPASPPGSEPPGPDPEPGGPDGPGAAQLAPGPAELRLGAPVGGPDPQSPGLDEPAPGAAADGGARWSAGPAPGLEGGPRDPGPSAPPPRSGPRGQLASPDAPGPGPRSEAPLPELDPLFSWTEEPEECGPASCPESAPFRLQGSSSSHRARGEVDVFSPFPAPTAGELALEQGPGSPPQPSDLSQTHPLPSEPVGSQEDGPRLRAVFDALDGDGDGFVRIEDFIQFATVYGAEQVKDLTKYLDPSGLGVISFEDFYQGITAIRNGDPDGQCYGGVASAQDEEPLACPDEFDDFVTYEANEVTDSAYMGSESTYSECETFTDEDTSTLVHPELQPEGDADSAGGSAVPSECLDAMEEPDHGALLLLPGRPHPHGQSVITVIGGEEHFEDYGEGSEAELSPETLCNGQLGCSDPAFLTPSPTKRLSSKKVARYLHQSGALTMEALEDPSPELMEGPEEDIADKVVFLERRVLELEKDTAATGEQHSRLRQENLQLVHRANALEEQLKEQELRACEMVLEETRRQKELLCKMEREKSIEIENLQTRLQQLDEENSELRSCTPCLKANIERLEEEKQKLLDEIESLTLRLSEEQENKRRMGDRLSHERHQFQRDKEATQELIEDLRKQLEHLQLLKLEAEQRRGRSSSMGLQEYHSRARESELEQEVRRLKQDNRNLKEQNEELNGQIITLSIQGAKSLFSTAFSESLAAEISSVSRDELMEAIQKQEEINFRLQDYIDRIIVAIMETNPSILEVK


Columns and labels:
[1] = biological target: T1, SPDL1(2–359)::Strep-tag II; assay: pull-down; GST::LIC::6xHis (50 pmol) with 50 or 250 pmol adaptor and glutathione agarose, 1 h at 4°C, 150 μL of 50 mM HEPES, 100 mM NaCl, 5 mM DTT, pH 7.5, 0.1% Tween 20; Coomassie staining and immunoblot against Strep-tag II; details: both partners purified
[2] = biological target: T2, RAB11FIP3(2–756)::Strep-tag II; assay: as above; details: both partners purified

Binder | binding result [1] | binding result [2]
GST::LIC2(375–492)::6xHis (domain or fragment, human, single N-terminal tryptophan added in the construct; also called LIC2-C; source: E. coli BL21, purified (glutathione agarose, Ni-NTA; dialysis or SEC); not shown: GST, N-terminal, kept; 6xHis (after linker GSGSG), C-terminal, kept) WATPTRASESPARGPSGSPRTQGRGGPASVPSSSPGTSVKKPDPNIKNNAASEGVLASFFNSLLSKKTGSPGSPGAGGVQSTAKKSGQKTVLSNVQEELDRMTRKPDSMVTNSSTENEA | binds | binds
GST::LIC1(402–471)::6xHis (domain or fragment, human, single N-terminal tryptophan added in the construct; human dynein light intermediate chain 1 (DYNC1LI1), residues 402-471; source: E. coli BL21, purified (glutathione agarose, Ni-NTA; dialysis or SEC); not shown: GST, N-terminal, kept; 6xHis (after linker GSGSG), C-terminal, kept) WPGGSPRTPNRSVSSNVASVSPIPAGSKKIDPNMKAGATSEGVLANFFNSLLSKKTGSPGGPGVSGGSPAG | binds | binds
GST::LIC2(375–450)::6xHis (domain or fragment, human, single N-terminal tryptophan added in the construct; source: E. coli BL21, purified (glutathione agarose, Ni-NTA; dialysis or SEC); not shown: GST, N-terminal, kept; 6xHis (after linker GSGSG), C-terminal, kept) WATPTRASESPARGPSGSPRTQGRGGPASVPSSSPGTSVKKPDPNIKNNAASEGVLASFFNSLLSKKTGSPGSPGAG | binds | binds
GST::LIC1(414–471)::6xHis (domain or fragment, human, single N-terminal tryptophan added in the construct; human dynein light intermediate chain 1 (DYNC1LI1), residues 414-471; source: E. coli BL21, purified (glutathione agarose, Ni-NTA; dialysis or SEC); not shown: GST, N-terminal, kept; 6xHis (after linker GSGSG), C-terminal, kept) WSSNVASVSPIPAGSKKIDPNMKAGATSEGVLANFFNSLLSKKTGSPGGPGVSGGSPAG | binds | binds
